Assay results reported in article PMC8126837 (2021).
Changes are numbered by the printed parent chain.

B1: WNb 36 (VHH)
VHH: QVQLQESGGGLVQPGGSLRLSCAVSGFTLDYYAIGWFRQAPGKEREGVSCISNSGGNTKYADSVKGRFTTSVDNAQNTVYLLMNSLEPEDTAVYYCAAIAATYYSGTYYYQCPHYGMDYWGKGTQVTVSS
B2: WNbFc 36 (Fc fusion)
chain: B1 VHH
B3: WNb 19 (VHH)
VHH: QVQLQESGGGLVQPGGSLRLSCAASGSMFSINVMGWYRQASGKQRELVAGITRDGATNYSDSVKGRFTISGDNAKNTVYLQMNSLKPEDTAVYYCNTNVDSVWGSRIDYFGQGTQVTVSS
B4: WNb 23 (VHH)
VHH: QVQLQESGGGLVQPGGSLRLSCAASGFTFKDYAMAWARQVPGKGLEWVSGIYSDGNTYYADSVKGRFTISRDNAKNTVYLRMNSLKPEDTAVYYCATERHPQGAADFGSWGQGTQVTVSS
B5: WNb 7 (VHH)
VHH: QVQLQESGGGLVQPGGSLRLSCAAPGFTFSSYAMGWFRQVPGKGLEWVSGIYSDGSTYYADSVKGRFTISRDNAKNTVYLQMNSLKPEDTAVYYCAKDRLEGSSWPERDFGSWGQGTQVTVSS
B6: WNb 15 (VHH)
VHH: B5 VHH with P25S, A33L, S56G, K97T, L100M
B7: WNbFc 15 (Fc fusion)
chain: B5 VHH with P25S, A33L, S56G, K97T, L100M
B8: WNb 10 (VHH)
VHH: B5 VHH with P25S, S30R, S31R, A33L, F37A, L100M, E101D, S104T
B9: WNb 50 (VHH)
VHH: B5 VHH with P25S, K97A, L100M, E101A, S104R
B10: WNb 53 (VHH)
VHH: B5 VHH with P25S, A33L, F37A, S49A, T68I, L100M, G102D, S104T
B11: WNbFc 7 (Fc fusion)
chain: B5 VHH
B12: WNb 41 (VHH)
VHH: QVQLQESGGGLVQPGGSLRLSCAVSGFTLDYYAIGWFRQAPGKEREGVSCISSSGGSTNYADSVKGRFTISRDNAKNTVYLQMNGLKPEDTAVYYCAAIAATYYSGSYYYQCPHDGMDYWGKGTQVTVSS
B13: WNb 2 (VHH)
VHH: B12 VHH with S57N, N59K, I70A, V79F, G85S, Y110F
B14: WNb 67 (VHH)
VHH: B12 VHH with K76T, G85S, S105G, D115Y
B15: WNbFc 2 (Fc fusion)
chain: B12 VHH with S57N, N59K, I70A, V79F, G85S, Y110F

Molecular target: T1, SARS-CoV-2 receptor-binding domain (RBD), wild type (SARS-CoV-2, UniProt P0DTC2 331-527)
Assay: BLI

B1 and B2 are within 1.5-fold of each other in Kd: 0.43 nM for the first, 0.36 nM for the second.

Going from B3 to B4, the Kd rises from 0.46 nM to 9.03 nM (20-fold). The first binds more tightly here.

Compared with B5, B6 is 1.9-fold lower in Kd: 0.26 nM for the first, 0.14 nM for the second. The second binds more tightly here.

First: B7
Second: B8
The Kd of the first is 2.7-fold lower: 0.25 nM for the first, 0.68 nM for the second. The first binds more tightly here.

B9 and B10 are within 1.5-fold of each other in Kd: 0.63 nM for the first, 0.64 nM for the second.

Going from B11 to B12, the Kd rises from 0.35 nM to 0.55 nM (1.6-fold).

First: B13
Second: B14
The Kd of the first is 1.7-fold lower: 0.36 nM for the first, 0.61 nM for the second. The first binds more tightly here.

Molecular target: T1, SARS-CoV-2 receptor-binding domain …
Assay: BLI
Remark: another data set of the same source

Compared with B2, B7 is 1.6-fold lower in koff: 0.000202 s⁻¹ for the first, 0.000128 s⁻¹ for the second.

B11 and B15 are within 1.5-fold of each other in koff: 0.000191 s⁻¹ for the first, 0.000158 s⁻¹ for the second.

Molecular target: T2, SARS-CoV-2 spike (recombinant, used in bio-layer interferometry) (SARS-CoV-2, UniProt P0DTC2)
Assay: BLI

B2 and B7 cannot be ordered by koff: less than 1e-06 s⁻¹ for the first, less than 1e-06 s⁻¹ for the second.

B11 and B15 cannot be ordered by koff: less than 1e-06 s⁻¹ for the first, less than 1e-06 s⁻¹ for the second.

Molecular target: T1, SARS-CoV-2 receptor-binding domain …
Assay: BLI
Remark: another data set of the same source

B2 and B7 are within 1.5-fold of each other in Kd: 0.61 nM for the first, 0.44 nM for the second.

B11 and B15 are within 1.5-fold of each other in Kd: 0.7 nM for the first, 0.59 nM for the second.

Molecular target: T2, SARS-CoV-2 spike (recombinant, used in …)
Assay: BLI
Remark: another data set of the same source

B2 and B7 cannot be ordered by Kd: less than 0.01 nM for the first, less than 0.01 nM for the second.

B11 and B15 cannot be ordered by Kd: less than 0.01 nM for the first, less than 0.01 nM for the second.

Molecular target: SARS-CoV S1 subunit (SARS-CoV, UniProt P59594 14-667)
Assay: not given

First: B7
Second: B11
The EC50 of the first is 1.5-fold higher: 1.69 nM for the first, 1.12 nM for the second. The second is the more potent here.

Molecular target: T1, SARS-CoV-2 receptor-binding domain …
Assay: BLI
Remark: another data set of the same source

B1 and B3 are within 1.5-fold of each other in koff: 0.000127 s⁻¹ for the first, 0.000107 s⁻¹ for the second.

Going from B4 to B5, the koff falls from 0.00245 s⁻¹ to 3.19e-05 s⁻¹ (77-fold).

First: B6
Second: B8
The koff of the first is 3.2-fold lower: 3.05e-05 s⁻¹ for the first, 9.64e-05 s⁻¹ for the second.

B9 and B10 are the same in koff: 0.00013 s⁻¹ for the first, 0.00013 s⁻¹ for the second.

B12 and B13 are within 1.5-fold of each other in koff: 0.000104 s⁻¹ for the first, 7.34e-05 s⁻¹ for the second.

With B14 the koff was 0.000212 s⁻¹.

Molecular target: SARS2 S1
Assay: not given

Going from B2 to B7, the EC50 rises from 0.63 nM to 1.6 nM (2.5-fold).

Going from B11 to B15, the EC50 rises from 0.46 nM to 1.17 nM (2.5-fold).

First: B2
Second: B7
The IC50 of the first is 3.3-fold lower: 0.32 nM for the first, 1.07 nM for the second. The first is the more potent here.

B11 and B15 are within 1.5-fold of each other in IC50: 0.45 nM for the first, 0.66 nM for the second.
